Source: the supplement of paper PMC10126150
± gives the standard deviation of the averaged measurements.

System: ATP
Experiment: switch fluorescence ratio, 500 uM ATP over buffer (Cy3 cluster intensity, sum of 5 cycles each) (fold (ratio)); higher = stronger signal-on switching upon ATP binding; sequences stand for … in TCGTCGGCAGCGTCAGATGTGTATAAGAGACAGTTTTTTTTTTTTTTTTTTTTTTTTT…TC
Settings: aptamer strand: ATP DNA aptamer (quencher-CACCTGGGGGAGTATTGCGGAGGAAGG + anchor), 100 nM annealed; ATP concentration: 500 uM
How it was run: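 After annealing to 100 nM quencher-labelled ATP aptamer, Cy3-labelled switching-strand clusters on a modified Illumina MiSeq flow-cell were imaged in selection buffer. A second image followed after 15 min with 500 uM ATP at 22 °C, and five such buffer/ATP cycles were done, each separated by NaOH stripping and re-annealing. The fluorescence ratio, averaged per switch-domain sequence, is summed target-cycle over summed buffer-cycle Cy3 intensity per cluster, with clusters outside 100-1000 RFU excluded.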
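Also: ATP exposure 15 min at 22 °C before imaging.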

Row | Sequence | switch fluorescence ratio
1 | ACCGATACCC | 1.31 ± 0.022
2 | ACCGCGGGGG | 1.03 ± 0.034
3 | ACCGCGGTGT | 1.007 ± 0.0052
4 | ACCGCGTATG | 1.03 ± 0.038
5 | ACCGCTATGT | 1.57 ± 0.019
6 | ACCGGAGTCA | 1.22 ± 0.058
7 | ACCGGGAGAT | 0.994 ± 0.042
8 | ACCGGGAGGT | 1.01 ± 0.049
9 | ACCGGGGCAA | 1.13 ± 0.16
10 | ACCGGGTTGC | 1.064 ± 0.008
11 | ACCGGTACTC | 1.31 ± 0.047
12 | ACCGGTGTAC | 1.77 ± 0.12
13 | ACCGGTTATT | 1 ± 0.013
14 | ACCGGTTGCC | 0.974 ± 0.058
15 | ACCGGTTGGT | 0.976 ± 0.01
16 | ACCGGTTTCT | 0.997 ± 0.037
17 | ACCGTAGGTG | 1.03 ± 0.034
18 | ACCGTGAAGG | 0.99924 ± 8.2e-05
19 | ACCGTGTCAA | 1.01 ± 0.032
20 | ACCGTGTCGT | 0.989 ± 0.095
21 | ACCGTTAGGT | 0.951 ± 0.037
22 | ACCTACGCGG | 1.97 ± 0.22
23 | ACCTAGGACT | 1.024 ± 0.0027
24 | ACCTAGTAAA | 0.987 ± 0.025
25 | ACCTCACTTT | 1.303 ± 0.005
26 | ACCTCATTAA | 1.03 ± 0.015

Row | Sequence | switch fluorescence ratio
27 | ACCTCCCGGG | 1.13 ± 0.17
28 | ACCTCGGTCG | 0.983 ± 0.019
29 | ACCTGATTAA | 1.01 ± 0.018
30 | ACCTGGGCAG | 1.07 ± 0.015
31 | ACCTTACTTA | 1.29 ± 0.029
32 | ACCTTCCGGG | 2.37 ± 0.084
33 | ACCTTGATTG | 1.01 ± 0.018
34 | ACCTTGCACA | 1.252 ± 0.012
35 | ACCTTTTTAG | 1.02 ± 0.015
36 | ACCTTTTTAT | 1.02 ± 0.038
37 | ACGAAAAAAG | 1.02 ± 0.012
38 | ACGAAGGGCG | 1.019 ± 0.01
39 | ACGAAGGGTC | 0.9941 ± 0.0098
40 | ACGAATAAGG | 1.03 ± 0.021
41 | ACGACAGATG | 0.961 ± 0.046
42 | ACGACCATCG | 1.01 ± 0.02
43 | ACGACGAAAC | 3.35 ± 1
44 | ACGACGAAGG | 1.06 ± 0.083
45 | ACGACTTAGG | 1.07 ± 0.017
46 | ACGACTTTAG | 1.022 ± 0.0014
47 | ACGAGAACGA | 1.05 ± 0.021
48 | ACGAGATGGT | 1.023 ± 0.0069
49 | ACGAGCGCGT | 1.02 ± 0.027
50 | ACGAGGCCAG | 1.23 ± 0.032
51 | ACGAGGCGTA | 1.04 ± 0.0046
52 | ACGAGGCTTC | 1.294 ± 0.0082

Row | Sequence | switch fluorescence ratio
53 | ACGAGGGAGC | 1.05 ± 0.017
54 | ACGAGGTTGG | 1.04 ± 0.084
55 | ACGAGTGAAA | 1.02 ± 0.045
56 | ACGAGTGGCG | 0.933 ± 0.021
57 | ACGAGTTCCC | 1.01 ± 0.043
58 | ACGAGTTTGG | 0.963 ± 0.036
59 | ACGAGTTTTT | 1.01 ± 0.021
60 | ACGATAGGGG | 1.03 ± 0.031
61 | ACGATAGGTA | 1.06 ± 0.026
62 | ACGATGAAGG | 1.01 ± 0.021
63 | ACGATGATGT | 1.0279 ± 0.00059
64 | ACGATGCGGG | 1.09 ± 0.025
65 | ACGATGGCTG | 1.04 ± 0.015
66 | ACGATTAGTT | 0.971 ± 0.032
67 | ACGATTGGGT | 0.992 ± 0.013
68 | ACGCAGTATA | 1.05 ± 0.013
69 | ACGCAGTTCT | 1.061 ± 0.008
70 | ACGCCCATTT | 1.15 ± 0.06
71 | ACGCCGGATT | 1.01 ± 0.027
72 | ACGCCGGCGA | 0.9729 ± 0.002
73 | ACGCCGGCTT | 1.272 ± 0.0019
74 | ACGCCGTATG | 1 ± 0.011
75 | ACGCGCGGAA | 1.008 ± 0.003
76 | ACGCTATCGC | 1.526 ± 0.0041
77 | ACGCTCCTAC | 2.64 ± 0.028
78 | ACGCTCGACC | 1.75 ± 0.15

Row | Sequence | switch fluorescence ratio
79 | ACGCTGGTGT | 1.34 ± 0.44
80 | ACGCTGTCGG | 1.006 ± 0.0068
81 | ACGCTGTTGG | 1.01 ± 0.035
82 | ACGGAAAGTT | 0.9876 ± 0.0071
83 | ACGGAATTTT | 1.09 ± 0.08
84 | ACGGAGACGG | 0.979 ± 0.067
85 | ACGGAGGGTT | 0.992 ± 0.01
86 | ACGGATATGG | 0.98 ± 0.011
87 | ACGGATCCTT | 1.026 ± 0.0059
88 | ACGGATTAGG | 1.01 ± 0.021
89 | ACGGCAGGAA | 1.04 ± 0.043
90 | ACGGCATCAT | 1.076 ± 0.0017
91 | ACGGCCGGGG | 1.04 ± 0.027
92 | ACGGCGCTTA | 1.19 ± 0.054
93 | ACGGCGGGGG | 1.15 ± 0.25
94 | ACGGCTAGCG | 1.02 ± 0.022
95 | ACGGCTGCGT | 1.05 ± 0.029
96 | ACGGCTTACT | 1.208 ± 0.0019
97 | ACGGGCAGAG | 1.02 ± 0.013
98 | ACGGGCCGGT | 0.98 ± 0.069
99 | ACGGGCGCAG | 0.994 ± 0.017
100 | ACGGGCTGCT | 1 ± 0.018
101 | ACGGGGAGGG | 1.04 ± 0.037
102 | ACGGGGGAGT | 1.03 ± 0.019
103 | ACGGGGGCGC | 0.986 ± 0.059
104 | ACGGGGGCGG | 1 ± 0.033

Row | Sequence | switch fluorescence ratio
105 | ACGGGGGCTT | 1.04 ± 0.062
106 | ACGGGGGGTT | 1.05 ± 0.085
107 | ACGGGGTCCG | 0.95 ± 0.03
108 | ACGGGGTCT | 1.02 ± 0.012
109 | ACGGGGTGGT | 1.065 ± 0.0059
110 | ACGGGGTGTA | 0.986 ± 0.041
111 | ACGGGTATGG | 1.01 ± 0.017
112 | ACGGGTGAGC | 1.09 ± 0.011
113 | ACGGGTGGGA | 1.005 ± 0.0036
114 | ACGGGTTGGC | 1.064 ± 0.0044
115 | ACGGGTTTGT | 0.9774 ± 0.0036
116 | ACGGTAAGTG | 1.02 ± 0.042
117 | ACGGTATCTT | 1.13 ± 0.019
118 | ACGGTATGTG | 1.03 ± 0.033
119 | ACGGTATTTG | 1.13 ± 0.035
120 | ACGGTCACCC | 1.66 ± 0.07
121 | ACGGTCGGA | 0.9979 ± 0.0048
122 | ACGGTCGTTA | 0.975 ± 0.027
123 | ACGGTCTGGC | 1.02 ± 0.035
124 | ACGGTGGTGT | 1.03 ± 0.016
125 | ACGGTTGAGC | 1 ± 0.021
126 | ACGGTTGATG | 0.986 ± 0.021
127 | ACGGTTGTTT | 1.0154 ± 0.00077
128 | ACGGTTTAAC | 1.105 ± 0.005
129 | ACGGTTTTTG | 0.993 ± 0.029
130 | ACGTAAACGC | 1.085 ± 0.0018

Row | Sequence | switch fluorescence ratio
131 | ACGTACATGT | 1.44 ± 0.018
132 | ACGTAGGCGG | 1.02 ± 0.062
133 | ACGTATATTG | 1.058 ± 0.0052
134 | ACGTCAAGGG | 1.1 ± 0.067
135 | ACGTCAAGTA | 0.985 ± 0.022
136 | ACGTCGCATT | 1.19 ± 0.035
137 | ACGTCGCCGG | 0.987 ± 0.038
138 | ACGTCGGGCT | 1.01 ± 0.021
139 | ACGTCGGTAC | 3 ± 0.49
140 | ACGTCTTACT | 1.101 ± 0.0018
141 | ACGTCTTAGT | 1 ± 0.021
142 | ACGTGCAATT | 1.37 ± 0.21
143 | ACGTGGTATG | 1.02 ± 0.015
144 | ACGTGTACGG | 1.03 ± 0.022
145 | ACGTGTGAC | 1 ± 0.023
146 | ACGTTAAGCG | 1.01 ± 0.035
147 | ACGTTAATGC | 2.09 ± 0.21
148 | ACGTTAGGTC | 1.04 ± 0.019
149 | ACGTTATTTG | 1.11 ± 0.052
150 | ACGTTCGGAG | 1.05 ± 0.05
151 | ACGTTCGGCG | 0.9968 ± 0.0021
152 | ACGTTGCAGA | 1.006 ± 0.006
153 | ACGTTGCTAA | 1.0246 ± 0.00021
